The values below come from US20210213145A1 (TAYU HUAXIA BIOTECH MEDICAL GROUP, published 2021).

Changes are numbered by the printed parent chain.

Assay [1] concerns the target T1, mouse PD-L1 on transfected CHO cells (mouse, UniProt Q9EP73 19-290).
T1 construct: whole, on cells; also called mPD-L1; CHO/mPD-L1
As to the kind of experiment: flow cytometry on CHO/mPD-L1 cells, one antibody amount, not given. The procedure: CHO cells transfected with mouse PD-L1 (CHO/mPD-L1) were used to assess the species cross-reactivity of the anti-hPD-L1 mAb with mouse PD-L1. The cells were incubated with the anti-hPD-L1 mAb prior to flow cytometry analysis.
On the technique in general: A flow cytometer gives signals particle by particle.

Assay [2] has as its target T2, hPD-L1mIg fusion protein (human, UniProt Q9NZQ7 19-238).
T2 construct: also called hPD-L1 mIg protein; biotin-labeled hPD-L1-mouse Fc fusion protein; not shown: mouse Ig (Fc) part
As to the kind of experiment: SPR, Biacore T200; hPD-L1 mIg amine-coupled on CM5 chip, antibody injected at 1-32 nM, full kinetic analysis. The procedure: The binding affinities and kinetics between the humanized anti-hPD-L1 mAbs and the hPD-L1 protein were assessed with Biacore T200 (GE Healthcare Life Sciences). The hPD-L1 mIg protein was immobilized on the sensor chip CM5 by amine coupling. The parental and humanized antibodies were injected at a concentration gradient of 1, 2, 4, 8, 16, and 32 nM. Binding kinetic parameters, including association rate (Kₒₙ), dissociation rate (Koff), and affinity constant (KD) were determined by full kinetic analysis. […] As shown in Table 7 and FIG. 4, the antibodies with dissociation rates (Koff) from the lowest to the highest were: parental (PA200), H1+L2 (H12), H3+L2 (H32), H1+L1 (H11), H1+L3 (H13), H3+L1 (H31), H3+L3 (H33), H2+L2 (H22), H2+L1 (H21), and H2+L3 (H23).
Background: Surface plasmon resonance follows binding to a sensor surface in real time, without labels.

Assay [3] deals with T2, hPD-L1mIg fusion protein. As to the kind of experiment: BLI, ForteBio Octet RED96; biotin-labeled hPD-L1-mouse Fc on SA sensors, 1:1 model. Here is the method:
All samples were prepared in PBS buffer (pH=7.4). The biotin-labeled hPD-L1-mouse Fc fusion protein was loaded onto SA sensors at a pre-determined loading threshold. scFv (PD-L1) was applied to the sensors at a concentration gradient of 3.125 nM-50 nM. Background subtraction was used to correct for sensor drifting. The data was fit to a 1:1 binding model using ForteBio's data analysis software in order to obtain the association (Kₒₙ) and dissociation (Koff) rates. The KD values were calculated based on Koff/Kₒₙ.
(In general: In BLI a coated tip is dipped into the sample, and binding shifts an interference pattern.)

T2 sequence (Q9NZQ7 19-238): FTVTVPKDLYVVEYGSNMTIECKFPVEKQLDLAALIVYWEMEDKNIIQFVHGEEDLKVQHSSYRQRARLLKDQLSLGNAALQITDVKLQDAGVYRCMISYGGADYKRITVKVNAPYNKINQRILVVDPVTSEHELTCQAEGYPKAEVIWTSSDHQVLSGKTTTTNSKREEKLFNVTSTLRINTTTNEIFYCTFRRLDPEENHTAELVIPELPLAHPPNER
T1 sequence (Q9EP73 19-290): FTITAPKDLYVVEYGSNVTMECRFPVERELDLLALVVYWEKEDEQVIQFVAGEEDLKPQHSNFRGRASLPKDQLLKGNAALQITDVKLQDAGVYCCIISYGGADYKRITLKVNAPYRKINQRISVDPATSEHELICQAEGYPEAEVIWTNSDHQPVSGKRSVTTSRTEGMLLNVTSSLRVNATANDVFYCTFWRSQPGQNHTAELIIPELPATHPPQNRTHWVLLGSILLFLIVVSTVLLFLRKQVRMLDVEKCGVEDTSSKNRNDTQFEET

B1: anti-hPD-L1 mAb 5B7 (antibody, IgG1, V domains shown)
VH: EVQLQQSGAELVKPGASVKLSCTASGFNIKDTYMYWVKQRPEQGLECIGRIDPANDNTKYDPKFQGKATITADTSSNTAYVQLASLTSEDTAVYYCARAKNLLNYFDYWGQGTTLTVSS
VL: DIQMTQSPSSLSASLGERVTLSCRASQEISGYLSWLQQKPDGTIKRLIYATSTLDSGVPKRFSGSRSGSDYSLTISSLESEDFADYYCLQYAIYPLTFGAGTKLELKR
notes: also called anti hPD-L1 monoclonal antibody 5B7; anti-hPD-L1 monoclonal antibody
Regarding B1, in assay [1], the binding result is “binds”.

B2: anti-PD-L1 parental (mouse-human chimeric mAb) (antibody, human IgG1, kappa, V domains shown)
VH: B1 VH
VL: B1 VL
notes: its variable domains are the same; also called parental chimeric antibody; parental (PA200)
As usually defined, the Kd is the equilibrium constant for the complex coming apart. What is called koff is the first-order rate constant of dissociation. Read a low koff as a long-lived complex. By kon is commonly meant a measure of how fast the partners come together. Higher therefore signals faster complex formation. As to B2, in the assay with hPD-L1mIg fusion protein [2], binding was put at a Kd of 0.128 nM, the koff was 0.000118 s⁻¹ and the kon was 924000 M⁻¹ s⁻¹.

B3: parental humanized IgG1 positive control antibody (antibody, V domains shown)
VH: QVQLVQSGAEVKKPGASVKVSCKASGFNIKDTYMYWVRQAPGQGLEWMGRIDPANDNTKYAQKFQGRVTITADTSTSTAYMELSSLRSEDTAVYYCARAKNLLNYFDYWGQGTLVTVSS
VL: DIQMTQSPSSLSASVGDRVTITCRASQEISGYLSWLQQKPGKAPKRLIYATSTLQSGVPSRFSGSRSGTDYTLTISSLQPEDFATYYCLQYAIYPLTFGQGTKLEIKR
notes: also called anti-PD-L1 IgG1; Anti-Human PD-L1 IgG1
In the assay with hPD-L1mIg fusion protein [3], B3 registered a Kd of 6.92 nM, a koff of 0.000225 s⁻¹ and a kon of 32600 M⁻¹ s⁻¹.

B4: anti-PD-L1 HC1 + LC2 (antibody, V domains shown)
VH: B3 VH
VL: B3 VL
notes: Humanized antibody, Humanized VH 1 + Humanized VL 2; also called H1+L2; H12
In the assay with hPD-L1mIg fusion protein [2], B4 returned a Kd of 0.557 nM, a koff of 0.000811 s⁻¹ and an on-rate (kon) of 1.46e+06 M⁻¹ s⁻¹.

B5: anti-PD-L1 HC2 + LC2 (antibody, V domains shown)
VH: B3 VH with M48I, Q62P, S77N
VL: B3 VL
notes: Humanized antibody, Humanized VH 2 + Humanized VL 2; also called H2+L2; H22
With B5, in the assay with hPD-L1mIg fusion protein [2], the Kd worked out at 1.23 nM, the koff amounted to 0.00251 s⁻¹ and the kon was determined as 2.05e+06 M⁻¹ s⁻¹.

B6: anti-PD-L1 HC3 + LC1 (antibody, V domains shown)
VH: B3 VH with Q1E, S77N
VL: B3 VL with L36Y, Q55D, R66G, Y71F
notes: Humanized antibody, Humanized VH3 + Humanized VL 1; also called H3+L1; H31
As to B6, in the assay with hPD-L1mIg fusion protein [2], the Kd worked out at 1.17 nM, the dissociation rate constant (koff) came out at 0.00146 s⁻¹ and the association rate constant (kon) worked out at 1.25e+06 M⁻¹ s⁻¹.

B7: anti-PD-L1 HC1 + LC1 (antibody, V domains shown)
VH: B3 VH
VL: B3 VL with L36Y, Q55D, R66G, Y71F
notes: Humanized antibody, Humanized VH 1 + Humanized VL 1; also called H1+L1; H11
In the assay with hPD-L1mIg fusion protein [2], B7 had an equilibrium dissociation constant (Kd) of 1.38 nM, a koff of 0.0012 s⁻¹ and a kon of 869000 M⁻¹ s⁻¹.

B8: anti-PD-L1 HC3 + LC3 (antibody, V domains shown)
VH: B3 VH with Q1E, S77N
VL: B3 VL with L36Y, Q55D, T69S
notes: Humanized antibody, Humanized VH3 + Humanized VL 3; also called H3+L3; H33
In the assay with hPD-L1mIg fusion protein [2], B8 had a Kd of 1 nM, a koff of 0.00146 s⁻¹ and a kon of 1.46e+06 M⁻¹ s⁻¹.

B9: anti-PD-L1 HC2 + LC3 (antibody, V domains shown)
VH: B3 VH with M48I, Q62P, S77N
VL: B3 VL with L36Y, Q55D, T69S
notes: Humanized antibody, Humanized VH 2 + Humanized VL 3; also called H2+L3; H23
Take B9: in the assay with hPD-L1mIg fusion protein [2], binding was characterised by a dissociation constant (Kd) of 1.84 nM, the koff is 0.00417 s⁻¹ and the kon is 2.26e+06 M⁻¹ s⁻¹.

B10: anti-PD-L1 HC3 + LC2 (antibody, V domains shown)
VH: B3 VH with Q1E, S77N
VL: B3 VL
notes: Humanized antibody, Humanized VH3 + Humanized VL 2; also called H3+L2; H32
In the assay with hPD-L1mIg fusion protein [2], B10 gave an equilibrium dissociation constant (Kd) of 0.666 nM, a koff of 0.0011 s⁻¹ and an on-rate (kon) of 1.65e+06 M⁻¹ s⁻¹.

B11: anti-PD-L1 HC2 + LC1 (antibody, V domains shown)
VH: B3 VH with M48I, Q62P, S77N
VL: B3 VL with L36Y, Q55D, R66G, Y71F
notes: Humanized antibody, Humanized VH 2 + Humanized VL 1; also called H2+L1; H21
With B11, in the assay with hPD-L1mIg fusion protein [2], the Kd turned out to be 2.18 nM, the koff turned out to be 0.00406 s⁻¹ and the kon turned out to be 1.86e+06 M⁻¹ s⁻¹.

B12: anti-PD-L1 HC1 + LC3 (antibody, V domains shown)
VH: B3 VH
VL: B3 VL with L36Y, Q55D, T69S
notes: Humanized antibody, Humanized VH 1 + Humanized VL 3; also called H1+L3; H13
Consider B12, for which, in the assay with hPD-L1mIg fusion protein [2], binding was put at a Kd of 1.3 nM, the koff came to 0.00143 s⁻¹ and the kon came to 1.1e+06 M⁻¹ s⁻¹.
